This passage reports Ki and IC50 (inhibition of prolyl 4-hydroxylase activity; printed in the Ki row) results from US20020177203A1, “Alpha2 subunit of prolyl 4-hydroxylase” (priority 1996, published 2002).

Assay [1] has as its target human type 1 prolyl 4-hydroxylase tetramer (human) (UniProt P13674). The experiment in a line: inhibition of prolyl 4-hydroxylase activity (2-oxo[1-14C]glutarate decarboxylation), insect cell extract.
The target in assay [2] is mouse/human type 2 prolyl 4-hydroxylase tetramer (mouse; human) (UniProt P07237). The assay is described as follows: cell-based or functional assay.
Sequence of mouse/human type 2 prolyl 4-hydroxylase tetramer (mouse; human) (chain, as listed by the source, chain 1 of 2): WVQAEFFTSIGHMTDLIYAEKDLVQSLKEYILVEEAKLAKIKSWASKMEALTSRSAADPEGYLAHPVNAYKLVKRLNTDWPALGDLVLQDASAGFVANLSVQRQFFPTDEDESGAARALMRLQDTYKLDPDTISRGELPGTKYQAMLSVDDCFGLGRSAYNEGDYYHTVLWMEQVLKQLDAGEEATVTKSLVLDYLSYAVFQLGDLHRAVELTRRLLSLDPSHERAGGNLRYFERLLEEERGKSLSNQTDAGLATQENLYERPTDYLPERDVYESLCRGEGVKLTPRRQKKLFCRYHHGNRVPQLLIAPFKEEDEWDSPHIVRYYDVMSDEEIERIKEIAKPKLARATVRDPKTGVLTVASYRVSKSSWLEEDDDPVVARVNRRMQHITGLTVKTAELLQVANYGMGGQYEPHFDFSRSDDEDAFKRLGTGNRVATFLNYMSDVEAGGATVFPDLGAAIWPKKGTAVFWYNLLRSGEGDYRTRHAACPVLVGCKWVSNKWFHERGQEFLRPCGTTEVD
Sequence of mouse/human type 2 prolyl 4-hydroxylase tetramer (mouse; human) (P07237 18-508, chain 2 of 2): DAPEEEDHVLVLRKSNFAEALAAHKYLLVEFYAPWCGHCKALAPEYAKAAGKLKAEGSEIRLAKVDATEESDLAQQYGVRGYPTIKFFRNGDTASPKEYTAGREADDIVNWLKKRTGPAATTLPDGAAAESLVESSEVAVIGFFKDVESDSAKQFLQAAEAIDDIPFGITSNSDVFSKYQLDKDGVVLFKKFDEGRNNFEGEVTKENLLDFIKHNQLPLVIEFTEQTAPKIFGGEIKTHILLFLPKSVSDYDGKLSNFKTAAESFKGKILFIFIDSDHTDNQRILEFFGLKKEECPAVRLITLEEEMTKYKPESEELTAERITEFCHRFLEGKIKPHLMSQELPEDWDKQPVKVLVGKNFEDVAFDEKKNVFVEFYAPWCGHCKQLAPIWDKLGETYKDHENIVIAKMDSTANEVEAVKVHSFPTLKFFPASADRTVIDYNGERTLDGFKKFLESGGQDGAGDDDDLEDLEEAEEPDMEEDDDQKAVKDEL

Sequence of human type 1 prolyl 4-hydroxylase tetramer (human) (P13674 18-534, chain 1 of 2): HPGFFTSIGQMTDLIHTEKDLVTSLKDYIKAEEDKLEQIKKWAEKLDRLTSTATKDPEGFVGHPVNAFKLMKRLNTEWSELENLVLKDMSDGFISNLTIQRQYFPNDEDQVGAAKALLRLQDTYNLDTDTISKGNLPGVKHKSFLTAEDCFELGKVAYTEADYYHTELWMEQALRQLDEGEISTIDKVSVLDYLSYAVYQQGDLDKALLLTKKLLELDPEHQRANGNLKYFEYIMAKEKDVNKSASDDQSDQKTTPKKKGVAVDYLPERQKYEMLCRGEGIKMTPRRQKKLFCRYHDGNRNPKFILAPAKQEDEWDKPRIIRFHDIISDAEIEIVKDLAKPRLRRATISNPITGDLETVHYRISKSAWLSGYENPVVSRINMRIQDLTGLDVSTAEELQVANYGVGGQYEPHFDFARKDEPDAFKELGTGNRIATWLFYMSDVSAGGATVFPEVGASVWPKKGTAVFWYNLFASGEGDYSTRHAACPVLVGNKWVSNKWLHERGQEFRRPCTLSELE
Sequence of human type 1 prolyl 4-hydroxylase tetramer (human) (P07237 18-508, chain 2 of 2, further chain): as the sequence (P07237 18-508, chain 2 of 2) above

What is called Ki is the equilibrium dissociation constant of an inhibitor or competing ligand from its target. A lower Ki goes with tighter binding. For Poly(L-proline), Mr 44,000 (peptide), in assay [1], the Ki is 0.02 µM. The same substance registered an IC50 (inhibition of prolyl 4-hydroxylase activity; printed in the Ki row) in assay [2] of 30 µM.

The substance Poly(L-proline), Mr 7000 (peptide) yielded an inhibition constant Ki in assay [1] of 0.5 µM. Besides, in assay [2], the IC50 (inhibition of prolyl 4-hydroxylase activity; printed in the Ki row) worked out at 300 µM.
